Assay results reported in PMC9352680, “A comprehensive thermodynamic model for RNA binding by the Saccharomyces cerevisiae Pumilio protein PUF4”.

T1: PUF4 RNA-binding domain (Saccharomyces cerevisiae, UniProt P25339 537-888)
T1 sequence: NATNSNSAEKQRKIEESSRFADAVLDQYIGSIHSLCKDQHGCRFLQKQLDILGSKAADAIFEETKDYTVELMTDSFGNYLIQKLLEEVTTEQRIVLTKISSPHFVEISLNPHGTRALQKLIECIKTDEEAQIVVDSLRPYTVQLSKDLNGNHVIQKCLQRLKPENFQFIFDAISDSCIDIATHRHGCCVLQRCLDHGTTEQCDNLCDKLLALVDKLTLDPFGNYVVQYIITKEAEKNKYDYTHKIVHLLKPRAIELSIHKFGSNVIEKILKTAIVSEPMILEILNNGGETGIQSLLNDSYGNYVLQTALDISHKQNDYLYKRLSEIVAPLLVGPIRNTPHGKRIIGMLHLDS

B1: Ic_S4_P5E.1_K5.1_C5.1_H5.1_A5.1_[T5G]_[A7T]_F5.1_[T8C]_[A10T]_T5.1 (ssRNA)
RNA: UUUGACAACUGAUCGUUCUUUCUUGUAGUUCUUUUCUUUCUCGAUCAGUUGUCUUU
B2: Ic_S4_P5E.1_K5.1_C5.1_H5.1_A5.1_[T5A]_[T6A]_[A7T]_F5.1_[T9A]_T5.1 (ssRNA)
RNA: UUUGACAACUGAUCGUUCUUUCUUGUAAAUUAAUUCUUUCUCGAUCAGUUGUCUUU
B3: Ic_S4_P5E.1_K5.1_C5.1_H5.1_A5.1_[T5A]_[T6C]_[A7T]_F5.1_[T8C]_[T9C]_[A10C]_T5.1 (ssRNA)
RNA: UUUGACAACUGAUCGUUCUUUCUUGUAACUCCCUUCUUUCUCGAUCAGUUGUCUUU
B4: Ic_S4_P5E.1_K5.1_C5.1_H5.1_A5.1_[T5C]_F5.1_[T8A]_[T9C]_[A10C]_T5.1 (ssRNA)
RNA: UUUGACAACUGAUCGUUCUUUCUUGUACUAACCUUCUUUCUCGAUCAGUUGUCUUU
B5: Ic_S4_P5E.1_K5.1_C5.1_H5.1_A5.1_[T6A]_[A7T]_F5.1_[T8C]_[T9G]_[A10G]_T5.1 (ssRNA)
RNA: UUUGACAACUGAUCGUUCUUUCUUGUAUAUCGGUUCUUUCUCGAUCAGUUGUCUUU
B6: Ic_S4_P5E.1_K5.1_C5.1_H5.1_A5.1_[T6G]_[A7G]_F5.1_[T8C]_[A10C]_T5.1 (ssRNA)
RNA: UUUGACAACUGAUCGUUCUUUCUUGUAUGGCUCUUCUUUCUCGAUCAGUUGUCUUU
B7: Ic_S4_P5E.1_K5.1_C5.1_H5.1_A5.1_[T5A]_[A7G]_F5.1_[T8G]_[A10C]_T5.1 (ssRNA)
RNA: UUUGACAACUGAUCGUUCUUUCUUGUAAUGGUCUUCUUUCUCGAUCAGUUGUCUUU
B8: Ic_S4_P5E.1_K5.1_C5.1_H5.1_A5.1_[T6A]_[A7T]_F5.1_[T8C]_[T9C]_[A10T]_T5.1 (ssRNA)
RNA: UUUGACAACUGAUCGUUCUUUCUUGUAUAUCCUUUCUUUCUCGAUCAGUUGUCUUU
B9: Ic_S4_P5E.1_K5.1_C5.1_H5.1_A5.1_[T5C]_[T6G]_[A7C]_F5.1_[T8C]_[T9C]_T5.1 (ssRNA)
RNA: UUUGACAACUGAUCGUUCUUUCUUGUACGCCCAUUCUUUCUCGAUCAGUUGUCUUU
B10: Ic_S4_P5E.1_K5.1_C5.1_H5.1_A5.1_[T5A]_[T6C]_[A7C]_F5.1_[A10T]_T5.1 (ssRNA)
RNA: UUUGACAACUGAUCGUUCUUUCUUGUAACCUUUUUCUUUCUCGAUCAGUUGUCUUU
B11: Ic_S4_P5E.1_K5.1_C5.1_H5.1_A5.1_[T5A]_[T6C]_[A7T]_F5.1_[T8A]_[A10C]_T5.1 (ssRNA)
RNA: UUUGACAACUGAUCGUUCUUUCUUGUAACUAUCUUCUUUCUCGAUCAGUUGUCUUU
B12: Ic_S4_P5E.1_K5.1_C5.1_H5.1_A5.1_[T5A]_[T6A]_[A7T]_F5.1_[T8A]_[T9C]_[A10G]_T5.1 (ssRNA)
RNA: UUUGACAACUGAUCGUUCUUUCUUGUAAAUACGUUCUUUCUCGAUCAGUUGUCUUU
B13: Ic_S4_P5E.1_K5.1_C5.1_H5.1_A5.1_[T5G]_[A7C]_F5.1_[T9C]_[A10G]_T5.1 (ssRNA)
RNA: UUUGACAACUGAUCGUUCUUUCUUGUAGUCUCGUUCUUUCUCGAUCAGUUGUCUUU
B14: Ic_S4_P5E.1_K5.1_C5.1_H5.1_A5.1_[T5C]_[T6A]_F5.1_[T9G]_[A10G]_T5.1 (ssRNA)
RNA: UUUGACAACUGAUCGUUCUUUCUUGUACAAUGGUUCUUUCUCGAUCAGUUGUCUUU
B15: Ic_S4_P5E.1_K5.1_C5.1_H5.1_A5.1_[T6G]_[A7T]_F5.1_[T8A]_[T9A]_T5.1 (ssRNA)
RNA: UUUGACAACUGAUCGUUCUUUCUUGUAUGUAAAUUCUUUCUCGAUCAGUUGUCUUU

Target: T1, PUF4 RNA-binding domain
Test: Mg; RNA-MaP; 20 mM Na-HEPES pH 7.4, 30 mM KOAc, 0.75 mM MgCl2, 0.1% Tween-20, 5% glycerol, 0.1 mg/mL BSA, 2 mM DTT; 25 C; 0.0125-409.6 nM protein
Conditions: tags: N-His6-TEV cleaved; C-SNAP kept, Cy3B-labelled; label: tethered on chip by stalled RNA polymerase

Binder | Kd [nM]
UCUCUUGCACACUAUAUAUCUCUU (ssRNA) [Id_i_S1_P3E.4_K3.3_C3.2_[C-2G]_[T-1C]_H3.3_A3.1_F3.1_T3.2] | 116
UCUCUUUGUAUACUCUCUCUU (ssRNA) [Ic_S1_P4E.1_K4.1_C4.1_H4.1_A4.1_[T7C]_F4.1_[A9C]_T4.1] | 9.32
UCUCUUAACUGUAUAUAUAUCUCUU (ssRNA) [Id_i_S1_P3E.5_K3.1_C3.3_[T-3A]_[C-2A]_[T-1C]_H3.1_A3.1_F3.1_T3.2] | 6.08
UCUCUUACACACUAUAUAUCUCUU (ssRNA) [Id_i_S1_P3E.4_K3.3_C3.2_[C-2A]_[T-1C]_H3.3_A3.1_F3.1_T3.2] | 998
UCUCUUUAUAUAUAUAUAUCUCUU (ssRNA) [Id_i_S1_P3E.3_K3.2_C3.2_[C-2T]_[T-1A]_H3.2_A3.1_F3.1_T3.2] | 439
UCUCUUUAACACUAUAUAUCUCUU (ssRNA) [Id_ii_S1_P3E.4_K3.3_C3.2_[C-2T]_[T-1A]_H3.3_A3.1_F3.1_T3.2] | 2160
UCUCUUAAUAUAUAUAUAUCUCUU (ssRNA) [Id_i_S1_P3E.3_K3.2_C3.2_[C-2A]_[T-1A]_H3.2_A3.1_F3.1_T3.2] | 675
UCUCUUCGCUGUAUAUAUAUCUCUU (ssRNA) [Id_i_S1_P3E.5_K3.1_C3.3_[T-3C]_[C-2G]_[T-1C]_H3.1_A3.1_F3.1_T3.2] | 8.53
UCUCUUUGUAUAGUCUCUCUU (ssRNA) [Ic_S1_P4E.1_K4.1_C4.1_H4.1_A4.1_[T7G]_F4.1_[A9C]_T4.1] | 23.4
UCUCUUGACUAUAUAUAUAUCUCUU (ssRNA) [Id_i_S1_P3E.6_K3.2_C3.3_[T-3G]_[C-2A]_[T-1C]_H3.2_A3.1_F3.1_T3.2] | 806
UCUCUUACUGUAUAUAUAUCUCUU (ssRNA) [Id_i_S1_P3E.2_K3.1_C3.2_[C-2A]_[T-1C]_H3.1_A3.1_F3.1_T3.2] | 9.07
UCUCUUAGCUGUAUAUAUAUCUCUU (ssRNA) [Id_i_S1_P3E.5_K3.1_C3.3_[T-3A]_[C-2G]_[T-1C]_H3.1_A3.1_F3.1_T3.2] | 7.66
UCUCUUUGACACUAUAUAUCUCUU (ssRNA) [Id_i_S1_P3E.4_K3.3_C3.2_[C-2T]_[T-1G]_H3.3_A3.1_F3.1_T3.2] | 2180
UCUCUUCAAUGUAUAUAUAUCUCUU (ssRNA) [Id_i_S1_P3E.5_K3.1_C3.3_[T-3C]_[C-2A]_[T-1A]_H3.1_A3.1_F3.1_T3.2] | 7.95
UCUCUUUGUGUAUAUAUAUCUCUU (ssRNA) [Id_ii_S1_P3E.2_K3.1_C3.2_[C-2T]_[T-1G]_H3.1_A3.1_F3.1_T3.2] | 6.24
UCUCUUCUCUGUAUAUAUAUCUCUU (ssRNA) [Id_i_S1_P3E.5_K3.1_C3.3_[T-3C]_[C-2T]_[T-1C]_H3.1_A3.1_F3.1_T3.2] | 4.39
UCUCUUUGUAUAAUUUCUCUU (ssRNA) [Ib_S1_P4E.1_K4.1_C4.1_H4.1_A4.1_[T7A]_F4.1_[A9T]_T4.1] | 8.41
UCUCUUGCUAUAUAUAUAUCUCUU (ssRNA) [Id_i_S1_P3E.3_K3.2_C3.2_[C-2G]_[T-1C]_H3.2_A3.1_F3.1_T3.2] | 569
UCUCUUAAACACUAUAUAUCUCUU (ssRNA) [Id_i_S1_P3E.4_K3.3_C3.2_[C-2A]_[T-1A]_H3.3_A3.1_F3.1_T3.2] | > 2300
UCUCUUGUCUGUAUAUAUAUCUCUU (ssRNA) [Id_i_S1_P3E.5_K3.1_C3.3_[T-3G]_[C-2T]_[T-1C]_H3.1_A3.1_F3.1_T3.2] | 4.63

Binder | Kd [nM]
UCUCUUUGUAUAGUUUCUCUU (ssRNA) [Ic_S1_P4E.1_K4.1_C4.1_H4.1_A4.1_[T7G]_F4.1_[A9T]_T4.1] | 9.53
UCUCUUCACUGUAUAUAUAUCUCUU (ssRNA) [Id_i_S1_P3E.5_K3.1_C3.3_[T-3C]_[C-2A]_[T-1C]_H3.1_A3.1_F3.1_T3.2] | 5.56
UCUCUUCUAUGUAUAUAUAUCUCUU (ssRNA) [Id_i_S1_P3E.5_K3.1_C3.3_[T-3C]_[C-2T]_[T-1A]_H3.1_A3.1_F3.1_T3.2] | 10.2
UCUCUUUCACACUAUAUAUCUCUU (ssRNA) [Id_i_S1_P3E.4_K3.3_C3.2_[C-2T]_[T-1C]_H3.3_A3.1_F3.1_T3.2] | > 2300
UCUCUUAUCUGUAUAUAUAUCUCUU (ssRNA) [Id_i_S1_P3E.5_K3.1_C3.3_[T-3A]_[C-2T]_[T-1C]_H3.1_A3.1_F3.1_T3.2] | 6.91
UCUCUUGUCUAUAUAUAUAUCUCUU (ssRNA) [Id_i_S1_P3E.6_K3.2_C3.3_[T-3G]_[C-2T]_[T-1C]_H3.2_A3.1_F3.1_T3.2] | 102
UCUCUUCUGUAUAUAUAUAUCUCUU (ssRNA) [Id_i_S1_P3E.6_K3.2_C3.3_[T-3C]_[C-2T]_[T-1G]_H3.2_A3.1_F3.1_T3.2] | 8.87
UCUCUUUCUGUAUAUAUAUCUCUU (ssRNA) [Id_ii_S1_P3E.2_K3.1_C3.2_[C-2T]_[T-1C]_H3.1_A3.1_F3.1_T3.2] | 3.33
UCUCUUUGUAUACUUUCUCUU (ssRNA) [Ic_S1_P4E.1_K4.1_C4.1_H4.1_A4.1_[T7C]_F4.1_[A9T]_T4.1] | 5.99
UCUCUUUAUGUAUAUAUAUCUCUU (ssRNA) [Id_ii_S1_P3E.2_K3.1_C3.2_[C-2T]_[T-1A]_H3.1_A3.1_F3.1_T3.2] | 8.02
UCUCUUAGUAUAUAUAUAUCUCUU (ssRNA) [Id_i_S1_P3E.3_K3.2_C3.2_[C-2A]_[T-1G]_H3.2_A3.1_F3.1_T3.2] | 576
UCUCUUUGUAAAUUAUCUCUU (ssRNA) [Ia_S1_P4E.1_K4.1_C4.1_H4.1_A4.1_[T5A]_F4.1_T4.1] | 2.08
UCUCUUGGCUGUAUAUAUAUCUCUU (ssRNA) [Id_i_S1_P3E.5_K3.1_C3.3_[T-3G]_[C-2G]_[T-1C]_H3.1_A3.1_F3.1_T3.2] | 6.92
UCUCUUGCUGUAUAUAUAUCUCUU (ssRNA) [Id_ii_S1_P3E.2_K3.1_C3.2_[C-2G]_[T-1C]_H3.1_A3.1_F3.1_T3.2] | 7.65
UCUCUUAGACACUAUAUAUCUCUU (ssRNA) [Id_ii_S1_P3E.4_K3.3_C3.2_[C-2A]_[T-1G]_H3.3_A3.1_F3.1_T3.2] | > 2300
UCUCUUUCUAUAUAUAUAUCUCUU (ssRNA) [Id_ii_S1_P3E.3_K3.2_C3.2_[C-2T]_[T-1C]_H3.2_A3.1_F3.1_T3.2] | 368
UCUCUUUGUAUAUAUAUAUCUCUU (ssRNA) [Id_ii_S1_P3E.3_K3.2_C3.2_[C-2T]_[T-1G]_H3.2_A3.1_F3.1_T3.2] | 6.55
UCUCUUUGUAUAAUCUCUCUU (ssRNA) [Ic_S1_P4E.1_K4.1_C4.1_H4.1_A4.1_[T7A]_F4.1_[A9C]_T4.1] | 15.8
UCUCUUAAUGUAUAUAUAUCUCUU (ssRNA) [Id_i_S1_P3E.2_K3.1_C3.2_[C-2A]_[T-1A]_H3.1_A3.1_F3.1_T3.2] | 7.22
UCUCUUACUAUAUAUAUAUCUCUU (ssRNA) [Id_i_S1_P3E.3_K3.2_C3.2_[C-2A]_[T-1C]_H3.2_A3.1_F3.1_T3.2] | 458

Binder | Kd [nM]
UCUCUUCGCUAUAUAUAUAUCUCUU (ssRNA) [Id_i_S1_P3E.6_K3.2_C3.3_[T-3C]_[C-2G]_[T-1C]_H3.2_A3.1_F3.1_T3.2] | 517
B1 | 91.8
B2 | 2.48
B3 | 198
B4 | 229
B5 | 72.8
B6 | 849
B7 | 1350
B8 | 14.7
B9 | 463
B10 | 18
B11 | 156
B12 | 50.2
B13 | 425
B14 | 16.9
B15 | 55.6
UCUCUUAAAUGUAUAUAUAUCUCUU (ssRNA) [Id_i_S1_P3E.5_K3.1_C3.3_[T-3A]_[C-2A]_[T-1A]_H3.1_A3.1_F3.1_T3.2] | 10.3
UCUCUUAGUGUAUAUAUAUCUCUU (ssRNA) [Id_i_S1_P3E.2_K3.1_C3.2_[C-2A]_[T-1G]_H3.1_A3.1_F3.1_T3.2] | 14.6
